Kd data for 2 molecules are collected here from publication PMC5763555.

Holding throughout (assay): EMSA
For orientation: Mobility shift assays separate free from complexed probe on a gel.

One series addresses POS-1 TZF domain (Caenorhabditis elegans, UniProt G5EF15 80-180).
The target in another series is POS-1(ZFmut) TZF domain (Caenorhabditis elegans, UniProt G5EF15 80-180, F121N;F164N).
The target of another series is T1, MEX-5 TZF domain (Caenorhabditis elegans, UniProt Q9XUB2 236-350).
T1 sequence: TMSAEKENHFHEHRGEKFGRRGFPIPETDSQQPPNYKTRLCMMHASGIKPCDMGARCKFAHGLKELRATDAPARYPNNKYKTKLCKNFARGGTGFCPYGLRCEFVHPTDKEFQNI

Chain of POS-1 TZF domain (G5EF15 80-180): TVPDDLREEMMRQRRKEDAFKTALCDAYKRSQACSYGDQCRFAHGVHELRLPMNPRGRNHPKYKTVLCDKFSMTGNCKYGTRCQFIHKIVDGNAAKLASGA
Chain of POS-1(ZFmut) TZF domain (G5EF15 80-180 F121N/F164N): as the sequence (G5EF15 80-180) above, with F42N, F85N counted along it

For the molecule UUUUUCUUAUUCUAGACUAAUAUUGUAAGCU (ssRNA) [SCR+ (glp-1 3'UTR fragment)], the figures for the Kd in the series with POS-1 TZF domain and in the series with POS-1(ZFmut) TZF domain were 0.0269 ± 0.0018 µM and more than 0.3 µM, respectively.

On to GUGAUUAUUUAUUAUUUAUUUAUUAUUUAUUUAUUAG (ssRNA) [TNF-ARE], for which the Kd (commonly the concentration at which binding is half-saturated) in the series with MEX-5 TZF domain turned out to be 0.011 ± 0.002 µM.
